In US12258605B2, “Alkane oxidation by modified hydroxylases” (The California Institute of Technology, priority 2005, dated 2025):
Where a chain is given by its changes, count along the chain named. In names and notes the source's numbering stands. Marks after values point to notes of the source that are not given here.

Legend:
Format in all cases: biochemical
[1] = Methane to methanol conversion (alcohol oxidase/Purpald); conditions: methane to methanol
Protocol: The 35-E11 variant was tested for the ability to convert methane to methanol using the method of Anthon and Barrett (Agric. Food Chem., 52:3749 (2004)). The method was optimized so that it could detect methanol concentrations in water as low as 10 μM.
The mutant BM-3 enzymes described below were purified using published procedures and used as catalysts in small reactions with methane. In glass head space vials containing magnetic stirring bars, BM-3 catalyst was added to 0.1 M potassium phosphate buffer (pH=8) saturated with methane. The vials were then crimped shut and charged to 20 psi with methane. To start the biotransformation, an NADPH regeneration system consisting of NADP+, isocitrate, and isocitric dehydrogenase was added through a syringe. The reaction was allowed to stir 12-15 hours. Methanol production was measured using a coupled enzyme assay. Aliquots of the reaction were transferred to 96-well microtitre plates and reacted with the enzyme alcohol oxidase for 5 minutes at room temperature. Alcohol oxidase converts the methanol produced by the BM-3 variants into formaldehyde which can be detected with the dye Purpald. To detect formaldehyde and quench the alcohol oxidase reaction, a solution of Purpald in 2 M NaOH was added and allowed to react for one hour. The purple color that Purpald forms in the presence of formaldehyde was quantified one hour later by spectrophotometrically reading the well at 550 nm and comparing the absorbance against similarly-treated solutions of BM-3, NADPH regeneration system, and methane-free buffer spiked with known concentrations of methanol. The results of these biotransformations are reported in Table 3 and sample spectra from the colorimetric assay are shown in FIG. 7.
Reactions for enzyme-catalyzed conversion of methane to methanol were carried out in 10 mL glass headspace vials. A 470 μL reaction mixture containing 5 μM purified BM-3 variant in 0.1 M potassium phosphate buffer (pH 8.0) was first added to the vial. The vial was immediately topped with a septum, pressurized with 30 psi of methane and shaken at 4° C. for 1 hour. […] For determination of total turnover, the reaction was allowed to proceed for 20 hours at room temperature.
The amount of methanol product formed during the 20 hr methane reaction was quantified colorimetrically with the use of alcohol oxidase and Purpald. 190 μL of the reaction mixture is transferred onto a single cell of a 96 well plate. 10 μL of 0.05 U/μL solution of alcohol oxidase (from Pichia pastoris, purchased from Sigma-Aldrich) was added to cell and allowed to incubate at room temperature for 5 minutes. During this time, the alcohol oxidase converts the methanol into formaldehyde. Purpald (168 mM in 2 M NAOH) was then added to form a purple product with the formaldehyde in solution. The purple color was read approximately 1 hour later at 550 nm using a Spectramax Plus microtiter plate reader. The concentration of methanol was determined based on the measure absorbance in comparison to a methanol calibration curve. The methanol calibration curve was generated with several standards. Each standard contained 100 μL of a methanol solution (10, 20, 40, 60, 100 μM) and 90 μL of the methane reaction mixture described above, without the methane pressurization.
The relative dimethyl ether (DME) activity was measured, 1 hour after treatment with Purpald, as the average net and absorbance at 550 nm from 8 microtitre plate DME reactions of the mutant compared to 8 equivalent reactions of 35-E11. All values were normalized by measuring the P450 concentration in each well with CO binding. “Asteriks” indicate criteria used to select mutants from libraries for further characterization. The oxidation rate is measured as absorbance change at 340 nm over 1 minute upon the addition of NADPH to 8 microtitre plate wells containing P450-containing cell lysate and compared to 8 equivalent reactions of 35-E11. […]

[2] = High-throughput dimethyl ether (DME) screen; conditions: relative to 35-E11; normalized to P450 concentration
Protocol: Cell lysates for high throughput screening were prepared as described previously (Peters et al., J. Am. Chem. Soc. 125:13442 (2003); incorporated by reference herein). High-throughput dimethyl ether (DME) screens were performed in 96 well plates as described previously. Improved mutants were selected based on an increased signal compared to 9-10A (for the saturation mutagenesis libraries) and 1-12G (for the recombination library). Reactions on octane and propane were analyzed by gas chromatography as described.
(§1) Libraries of mutants of 35-E11 were screened for phenotypes indicative of either increased product formation on small gaseous substrates slightly larger than methane. Additionally, they were screened for increased coupling of the consumption of NADPH reducing equivalents to product formation. Product formation was determined by measuring total amount of dimethyl ether hydroxylation while increased coupling was determined primarily by decreased background NADPH consumption rates (measured spectrophotometrically at 340 nm in the absence of substrate).
The relative dimethyl ether (DME) activity was measured, 1 hour after treatment with Purpald, as the average net and absorbance at 550 nm from 8 microtitre plate DME reactions of the mutant compared to 8 equivalent reactions of 35-E11. All values were normalized by measuring the P450 concentration in each well with CO binding. “Asteriks” indicate criteria used to select mutants from libraries for further characterization. The oxidation rate is measured as absorbance change at 340 nm over 1 minute upon the addition of NADPH to 8 microtitre plate wells containing P450-containing cell lysate and compared to 8 equivalent reactions of 35-E11. All values were normalized by measuring the P450 concentration in each well with CO binding. The total turnover number (TTN) was measured as the absorbance at 550 nm of methane reactions with each mutant after treatment with alcohol oxidase and
Screening libraries by spectroscopically monitoring NADPH consumption rates in the presence of the alkane often selects for mutants with NADPH oxidation rates highly uncoupled to product formation. This can be overcome through the use of surrogate substrates that mimic desired substrates, yet yield species when hydroxylated that are easily detected either directly or with the addition of a dye. For example, the screen for the high-throughput identification of mutant BM-3 enzymes with activity towards propane as described previously uses dimethyl ether (DME) as a propane surrogate substrate. Upon hydroxylation, it decomposes into methanol and dye-sensitive formaldehyde. In addition, hexyl methyl ether (HME) may be used as a surrogate for octane. It shares most of the physical properties of octane, including solubility in buffer, size, shape, and strength of its C—H bonds. When HME is hydroxylated at its methoxy carbon, it also produces an equivalent of formaldehyde which is visually detected at concentrations as low as 10 μM with the dye Purpald (see FIG. 25). Hexanal, the aldehyde product formed when the α-carbon of the hexyl group is hydroxylated, is practically unreactive towards Purpald at some concentrations used in the present screens. Formaldehyde is approximately 42 times more sensitive to Purpald than hexanal (see FIG. 26). This disproportionate response makes HME, in contrast to the symmetric ether DME, a regio-selective screen for terminal alkane hydroxylation.
High-throughput screening. Single colonies were picked and inoculated by a Qpix robot (Genetix, Beaverton, OR) into 1-mL, deep-well plates containing LB (Amp*) medium (400 μL). The plates were incubated at 30° C., 250 rpm, and 80% relative humidity. After 24 h, 50 μL from this pre-culture were used to inoculate a 2-mL, deep-well plates containing […] TB (Amp^+) medium per well. Cultures were grown at 37° C., 220 rpm, and 80% relative humidity. […]

[3] = Background NADPH oxidation rate in screen (cell lysate, no substrate); conditions: relative to 35-E11
Protocol: as §1
The relative dimethyl ether (DME) activity was measured, 1 hour after treatment with Purpald, as the average net and absorbance at 550 nm from 8 microtitre plate DME reactions of the mutant compared to 8 equivalent reactions of 35-E11. All values were normalized by measuring the P450 concentration in each well with CO binding. “Asteriks” indicate criteria used to select mutants from libraries for further characterization. The oxidation rate is measured as absorbance change at 340 nm over 1 minute upon the addition of NADPH to 8 microtitre plate wells containing P450-containing cell lysate and compared to 8 equivalent reactions of 35-E11. All values were normalized by measuring the P450 concentration in each well with CO binding. The total turnover number (TTN) was measured as the absorbance at 550 nm of methane reactions with each mutant after treatment with alcohol oxidase and […]

B1: 35-E11-E464R: P450 BM-3 variant, SEQ ID NO:8; 35-E11 with E464R (protein)
chain: TIKEMPQPKTFGELKNLPLLNTDKPVQALMKIADELGEIFKFEAPGCVTRYLSSQRLIKEACDESRFDKNLSQALKFFRDFSGDGLFTSWTHEINWKKAHNILLPSFSQQAMKGYHAMMVDIAVQLVQKWERLNADEHIEVSEDMTRLTLDTIGLCGFNYRFNSFYRDQPHPFIISMVRALDEVMNKLQRANPDDPAYDENKRQCQEDIKVMNDLVDKIIADRKARGEQSDDLLTQMLNGKDPETGEPLDDGNISYQIITFLIAGHETTSGLLSFALYFLVKNPHVLQKVVEEAARVLVDPVPSYKQVKQLKYVGMVLNEALRLWPTFPAFSLYAKEDTVLGGEYPLEKGDEVMVLIPQLHRDKTIWGDDVEEFRPERFENPSAIPQHAFKPFGNGQRACIGQQFALHEATLVLGMMLKHFDFEDHTNYELDIKETLTLKPEGFVVKAKSKKIPLGGIPSPSTRQSAKKVRKKAENAHNTPLLVLYGSNMGTAEGTARDLADIAMSKGFAPQVATLDSHAGNLPREGAVLIVTASYNGHPPDNAKQFVDWLDQASADEVKGVRYSVFGCGDKNWATTYQKVPAFIDETLAAKGAENIADRGEADASDDFEGTYEEWREHMWSDVAAYFNLDIENSEDNKSTLSLQFVDSAADMPLAKMHGAFSTNVVASKELQQPGSARSTRHLEIELPKEASYQEGDHLGVIPRNYEGTVNRVTARFGLDASQQIRLEAEEEKLAHLPLAKTVSVEELLQYVELQDPVTRTQLRAMAAKTVCPPHKVELEALLEKQAYKEQVLAKRLTMLELLEKYPACEMKFSEFIALLPSIRPRYYSISSSPRVDEKQASITVSVVSGEAWSGYGEYKGIASNYLAELQEGDTITCFISTPQSEFTLPKDPETPLIMVGPGTGVAPFRGFVQARKQLKEQGQSLGEAHLYFGCRSPHEDYLYQEELENAQSEGIITLHTAFSRMPNQPKTYVQHVMEQDGKKLIELLDQGAHFYICGDGSQMAPAVEATLMKSYADVHQVSEADARLWLQQLEEKGRYAKDVWAG
modifications: mutant P450 35-E11-E464R protein sequence
notes: 35-E11 with E464R
- Methane TTN [1]: 12
- Relative DME activity in screen [2]: 0.9
- Relative background NADPH oxidation rate [3]: 0.6*

B2: 35-E11-E464Y: P450 BM-3 variant, SEQ ID NO:9; 35-E11 with E464Y (protein)
chain: B1 chain with R464Y
modifications: mutant P450 35-E11-E464Y protein sequence
notes: 35-E11 with E464Y
- Methane TTN [1]: 13
- Relative DME activity in screen [2]: 0.8
- Relative background NADPH oxidation rate [3]: 0.7*

B3: 35-E11-E464T: P450 BM-3 variant, SEQ ID NO:10; 35-E11 with E464T (protein)
chain: B1 chain with R464T
modifications: mutant P450 35-E11-E464T protein sequence
notes: 35-E11 with E464T
- Methane TTN [1]: 11
- Relative DME activity in screen [2]: 0.8
- Relative background NADPH oxidation rate [3]: 0.7*

B4: 23-1D: P450 BM-3 variant, SEQ ID NO:12; 35-E11 plus Q645R, P968L (protein)
chain: B1 chain with R464G, Q645R, P968L
modifications: Mutant P450 23-1D protein sequence
notes: 35-E11 plus Q645R, P968L
- Methane TTN [1]: 11
- Relative DME activity in screen [2]: 0.7
- Relative background NADPH oxidation rate [3]: 0.8*

B5: 21-4G: P450 BM-3 variant, SEQ ID NO:13; 35-E11 plus D631N (protein)
chain: B1 chain with R464G, D631N
modifications: Mutant P450 21-4G protein sequence
notes: 35-E11 plus D631N
- Methane TTN [1]: 10
- Relative DME activity in screen [2]: 1.1
- Relative background NADPH oxidation rate [3]: 0.7*
